In the supplement of paper PMC7877785:
± gives the uncertainty stated by the source.

Experiment: self-splicing fitness, log relative to wild type (ln ratio); higher = more splicing; Tetrahymena group I intron in knt gene, E. coli kanamycin selection, DiMSum; sequences stand for … in CUCUCU…GGAGGGAAAAGUUAUCAGGCAUGCACCUGGUAGCUAGUCUUUAAACCAAUAGAUUGCAUCGGUUUAAAAGGCAAGACCGUCAAAUUGCGGGAAAGGGGUCAACAGCCGUUCAGUACCAAGUCUCAGGGGAAACUUUGAGAUGGCCUUGCAAAGGGUAUGGUAAUAAGCUGACGGACAUGGUCCUAACCACGCAGCCAAGUCCUAAGUCAACAGAUCUUCUGUUGAUAUGGAUGCAGUUCACAGACUAAAUGUCGGUCGGGGAAGAUGUAUUCUUCUCAUAAGAUAUAGUCGGACCUCUCCUUAAUGGGAGCUAGCGGAUGAAGUGAUGCAACACUGGAGCCGCUGGGAACUAAUUUGUAUGCGAAAGUAUAUUGAUUAGUUUUGGAGUACUCGUGGUCG
Procedure, shortened: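 Six replicate transformations of E. coli BL21(DE3) with a pET-22b(+) library were grown overnight at 37°C or 30°C. The library randomised all eight P1ex-region intron nucleotides, the intron lying in the knt kanamycin-resistance gene, and plates were LB agar with or without 25 μg/mL kanamycin plus 100 μg/mL carbenicillin, 50 μM IPTG and 0.2% rhamnose. Pooled colonies were amplicon-sequenced on an Illumina HiSeq 2500, and fitness is the DiMSum error-weighted combination of wild-type-normalised replicate fold changes, kanamycin versus none.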

| Sequence | self-splicing fitness (ln) (30 °C) | self-splicing fitness (ln) (37 °C) |
| --- | --- | --- |
| CAGUAGCAAUAUUACGAUCA | -1.67 ± 0.24 | -2.04 ± 0.32 |
| AGCAAGCAAUAUUACGAACC | -0.794 ± 0.12 | 0.286 ± 0.2 |
| UUGCAGCAAUAUUACGGCUG | -3.43 ± 0.3 | -2.59 ± 0.24 |
| UGCAAGCAAUAUUACGGCUC | -1.8 ± 0.11 | -1.01 ± 0.15 |
| GACUAGCAAUAUUACGACAA | -0.896 ± 0.063 | -0.0215 ± 0.069 |
| ACGCAGCAAUAUUACGAUGC | -3.44 ± 0.27 | -1.56 ± 0.21 |
| UGAAAGCAAUAUUACGGUAA | -1.02 ± 0.085 | -0.765 ± 0.078 |
| GCCCAGCAAUAUUACGGGAC | -4.73 ± 0.31 | -2.48 ± 0.14 |
| AAUGAGCAAUAUUACGGCUC | -1.82 ± 0.23 | -2.03 ± 0.38 |
| UCUUAGCAAUAUUACGAAUU |  | -2.06 ± 0.24 |
| GGCGAGCAAUAUUACGGUUC | -1.46 ± 0.13 | -0.156 ± 0.13 |
| UAACAGCAAUAUUACGGCAA | -0.777 ± 0.089 | 0.203 ± 0.096 |
| AAUGAGCAAUAUUACGCGAA | -3.05 ± 0.18 | -2.7 ± 0.22 |
| UUAAAGCAAUAUUACGGAAU | -3.11 ± 0.17 | -1.73 ± 0.17 |
| CGUAAGCAAUAUUACGAAGG | -1.78 ± 0.12 | -1.16 ± 0.2 |
| AUAAAGCAAUAUUACGUAUU | -2.73 ± 0.12 | -1.79 ± 0.13 |
| AAAGAGCAAUAUUACGUAAG | -3.48 ± 0.18 | -2.57 ± 0.22 |
| UGGUAGCAAUAUUACGUUAC | -2.42 ± 0.37 |  |
| CCUGAGCAAUAUUACGGUUU | -3.26 ± 0.2 | -2.38 ± 0.19 |
| GGAGAGCAAUAUUACGUGAG | -3.33 ± 0.23 | -1.56 ± 0.2 |
| CUGUAGCAAUAUUACGGUAC |  | -2.59 ± 0.28 |
| GUCAAGCAAUAUUACGCCGU | -2.32 ± 0.31 | -0.783 ± 0.27 |
| CGGCAGCAAUAUUACGUGAG | -0.694 ± 0.041 | -0.055 ± 0.069 |
| CGAAAGCAAUAUUACGGGUA | -2.73 ± 0.16 | -2.57 ± 0.14 |
| CAUGAGCAAUAUUACGCAAG | -3.15 ± 0.13 | -1.69 ± 0.12 |

| Sequence | self-splicing fitness (ln) (30 °C) | self-splicing fitness (ln) (37 °C) |
| --- | --- | --- |
| CGCCAGCAAUAUUACGCCAC |  | -1.48 ± 0.2 |
| CGUAAGCAAUAUUACGCCGG | -1.38 ± 0.11 | -1.04 ± 0.14 |
| CACUAGCAAUAUUACGUUUA | -4.15 ± 0.23 | -2.68 ± 0.17 |
| AACUAGCAAUAUUACGAACC | -0.5 ± 0.2 | -0.373 ± 0.21 |
| UAGGAGCAAUAUUACGAAAU | -2.12 ± 0.28 | -2.31 ± 0.42 |
| UUGCAGCAAUAUUACGCUGA | -3.27 ± 0.26 | -1.68 ± 0.17 |
| UCGUAGCAAUAUUACGGUUC | -3.12 ± 0.3 | -2.07 ± 0.27 |
| AAGGAGCAAUAUUACGAGAC | -2.03 ± 0.44 |  |
| UACGAGCAAUAUUACGCAUC |  | -1.96 ± 0.21 |
| UUAAAGCAAUAUUACGUUUA | -0.747 ± 0.068 | -0.409 ± 0.09 |
| UUGAAGCAAUAUUACGAAAU | -3.51 ± 0.13 | -0.963 ± 0.09 |
| AUCAAGCAAUAUUACGUACU | -0.173 ± 0.057 | 0.183 ± 0.066 |
| GUGGAGCAAUAUUACGUACG |  | -2.05 ± 0.23 |
| AGGCAGCAAUAUUACGGUAC | -3.68 ± 0.21 | -2.65 ± 0.2 |
| CCCAAGCAAUAUUACGUACU | -3.84 ± 0.19 | -2.46 ± 0.21 |
| UAUCAGCAAUAUUACGAACU | -1.2 ± 0.14 | 0.231 ± 0.13 |
| ACGCAGCAAUAUUACGCCAG | -2.82 ± 0.22 | -2.07 ± 0.28 |
| UUGUAGCAAUAUUACGGGAU | -4.01 ± 0.29 | -2.78 ± 0.26 |
| CUCCAGCAAUAUUACGAUUG | -1.53 ± 0.078 | -0.899 ± 0.11 |
| GUGCAGCAAUAUUACGCGUA | -1.62 ± 0.13 | -0.278 ± 0.1 |
| GAUUAGCAAUAUUACGGAUC | -2.71 ± 0.4 | -2.18 ± 0.32 |
| UUCUAGCAAUAUUACGACGC | -2.76 ± 0.44 |  |
| UAAAAGCAAUAUUACGCCUU | -1.53 ± 0.12 | -0.42 ± 0.12 |
| GACAAGCAAUAUUACGACUG | -0.381 ± 0.056 | -0.0494 ± 0.092 |
| ACAAAGCAAUAUUACGAUCC | -1.55 ± 0.071 | 0.389 ± 0.1 |

| Sequence | self-splicing fitness (ln) (30 °C) | self-splicing fitness (ln) (37 °C) |
| --- | --- | --- |
| CUAGAGCAAUAUUACGGCCU | -2.72 ± 0.44 | -1.69 ± 0.44 |
| CGGCAGCAAUAUUACGCGAG | -2.86 ± 0.14 | -2.37 ± 0.14 |
| UAUUAGCAAUAUUACGCUGU | -2.57 ± 0.23 | 0.0696 ± 0.22 |
| GUGCAGCAAUAUUACGUAAG | 0.0919 ± 0.087 | -0.00974 ± 0.1 |
| CAAAAGCAAUAUUACGCCUC | -3.57 ± 0.29 | -1.76 ± 0.25 |
| CCAAAGCAAUAUUACGCAUU | -3.34 ± 0.26 | -3.55 ± 0.46 |
| UUUCAGCAAUAUUACGAUUU | -1.34 ± 0.098 | -0.0319 ± 0.12 |
| UAAGAGCAAUAUUACGUCCU |  | -2.49 ± 0.45 |
| ACUUAGCAAUAUUACGCCGG | -1.08 ± 0.14 | -0.478 ± 0.18 |
| GCUCAGCAAUAUUACGCUGA | -2.82 ± 0.35 |  |
| AUCGAGCAAUAUUACGCAAA | -2.86 ± 0.16 | -2.38 ± 0.26 |
| GCCGAGCAAUAUUACGAAGU | -2.51 ± 0.35 | -1.14 ± 0.24 |
| CAGGAGCAAUAUUACGGAGC | -2.2 ± 0.39 | -3.3 ± 0.47 |
| CGCCAGCAAUAUUACGAGAU | -3.69 ± 0.18 | -2.04 ± 0.17 |
| UGAAAGCAAUAUUACGCUAA | -1 ± 0.12 | -0.805 ± 0.13 |
| GACCAGCAAUAUUACGCAGU | -1.56 ± 0.067 | -0.904 ± 0.09 |
| UUUUAGCAAUAUUACGUGGG | -1.79 ± 0.2 | -2.27 ± 0.27 |
| UAAAAGCAAUAUUACGCGUA | -1.12 ± 0.11 | -0.0821 ± 0.096 |
| GAUAAGCAAUAUUACGAUCA | -1.33 ± 0.1 | -0.134 ± 0.1 |
| GCACAGCAAUAUUACGGGGA | -2.29 ± 0.11 | -1.5 ± 0.1 |
| CCAGAGCAAUAUUACGCUAG | -3.84 ± 0.29 | -2.38 ± 0.28 |
| CAGCAGCAAUAUUACGAUUG | -2.36 ± 0.093 | -0.731 ± 0.09 |
| UCCCAGCAAUAUUACGUGCC | -4.06 ± 0.23 | -2.32 ± 0.2 |
| CUUGAGCAAUAUUACGUCAG | -1.6 ± 0.15 | -0.671 ± 0.17 |
| UACCAGCAAUAUUACGCCAA | -2.05 ± 0.12 | -0.589 ± 0.099 |

| Sequence | self-splicing fitness (ln) (30 °C) | self-splicing fitness (ln) (37 °C) |
| --- | --- | --- |
| UGGCAGCAAUAUUACGUCUU | -0.0989 ± 0.044 | 0.494 ± 0.059 |
| CACCAGCAAUAUUACGGGUA | -0.28 ± 0.045 | -0.404 ± 0.055 |
| GGAAAGCAAUAUUACGGUUA | -1.33 ± 0.11 | -0.365 ± 0.099 |
| CGUUAGCAAUAUUACGUACG | -2.89 ± 0.36 | -2.09 ± 0.5 |
| CGACAGCAAUAUUACGCCGA | -2.36 ± 0.11 | -0.991 ± 0.094 |
| GCAUAGCAAUAUUACGGGGG | -2.53 ± 0.23 | -2.13 ± 0.23 |
| UUGGAGCAAUAUUACGUGAC | -2.9 ± 0.41 | -0.119 ± 0.45 |
| UCUAAGCAAUAUUACGGUGG | -1.18 ± 0.082 | -0.0857 ± 0.13 |
| AGUCAGCAAUAUUACGCCGU | -1.26 ± 0.15 | -0.55 ± 0.21 |
| GUCGAGCAAUAUUACGGGGA | -2.91 ± 0.3 | -1.39 ± 0.24 |
| UAAUAGCAAUAUUACGCCGU | -2.83 ± 0.38 | -1.97 ± 0.43 |
| GGACAGCAAUAUUACGUAUG | -1.13 ± 0.073 | -0.419 ± 0.08 |
| GGGUAGCAAUAUUACGCUUC | -2.91 ± 0.25 |  |
| GAUGAGCAAUAUUACGACAA | -2.95 ± 0.31 |  |
| UCCCAGCAAUAUUACGUAAC | -2.45 ± 0.11 | -1.61 ± 0.17 |
| AGUUAGCAAUAUUACGGUGG | -1.16 ± 0.18 | -2.42 ± 0.27 |
| AAUAAGCAAUAUUACGAUAA | -1.9 ± 0.19 | -1.03 ± 0.18 |
| CCAGAGCAAUAUUACGUCUU | -3.89 ± 0.21 | -3.03 ± 0.2 |
| UAUCAGCAAUAUUACGUUUC | -2.67 ± 0.21 | -1.73 ± 0.22 |
| GGGCAGCAAUAUUACGACUA | -0.237 ± 0.094 | 0.125 ± 0.11 |
| UCAUAGCAAUAUUACGUUAA |  | -3.44 ± 0.42 |
| GCGAAGCAAUAUUACGUCCG | -1.24 ± 0.14 | -0.577 ± 0.2 |
| CGUGAGCAAUAUUACGUCCU |  | -1.64 ± 0.32 |
| CCGAAGCAAUAUUACGCCCG | -0.442 ± 0.13 | 0.42 ± 0.26 |
| CGUGAGCAAUAUUACGCACC | -1.07 ± 0.23 |  |
